In test [1] the target is Fc-GDF15 Mutant 2 (A3N/N5T) (human). Put plainly: SPR; Biacore T200, 37 °C; Fc-GDF15 captured on anti-human IgG on a CM4 chip; GFRAL injected as analyte, two-fold series 25-1.56 nM (human) or 100-6.25 nM (murine), 60 s association, 120 s dissociation; 1:1 Langmuir model; duplicate. On the technique in general: Surface plasmon resonance follows binding to a sensor surface in real time, without labels.

For test [2], the target named is Fc-GDF15 Mutant 3 (R4N/G6T) (human). Described as above.
Test [3] concerns the target Fc-GDF15 Mutant 2A (A3N/N5T/L36H) (human). The description is as above.
The target of test [4] is T1, Fc-GDF15 WT (knob-Fc-(G4S)5-GDF15 paired with hole-Fc, wildtype GDF15) (human) (UniProt Q99988).
T1 sequence (Q99988 whole entry, looked up): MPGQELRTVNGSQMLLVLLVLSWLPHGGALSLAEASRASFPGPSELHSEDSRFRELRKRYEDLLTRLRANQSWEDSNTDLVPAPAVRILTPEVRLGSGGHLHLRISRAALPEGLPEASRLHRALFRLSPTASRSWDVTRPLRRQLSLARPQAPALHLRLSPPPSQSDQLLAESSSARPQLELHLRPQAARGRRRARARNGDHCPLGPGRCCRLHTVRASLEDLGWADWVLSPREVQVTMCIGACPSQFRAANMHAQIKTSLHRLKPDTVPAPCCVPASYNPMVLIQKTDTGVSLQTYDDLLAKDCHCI
Described as above.

In test [5] the target is Fc-GDF15 Mutant 3A (R4N/G6T/L36H) (human). The test is described as above.
The target of test [6] is Fc-GDF15 Mutant 3B (R4N/G6T/L36R) (human). The test is described as above.
Test [7] has as its target Fc-GDF15 Mutant 3C (R4N/G6T/V98I) (human). The description is as above.
In test [8] the target is Fc-GDF15 Mutant 2C (A3N/N5T/V98I) (human). Described as above.
Test [9] concerns the target Fc-GDF15 Mutant 2 (A3N/N5T) (human). Put plainly: SPR; Biacore T200, 37 °C; anti-human IgG amine-coupled on a CM4 chip captures Fc-GDF15; GFRAL ECD injected in two-fold dilutions (human 25 to 1.56 nM, murine 100 to 6.25 nM), 60 s association, 120 s dissociation; double referencing, 1:1 Langmuir model; duplicate.
Test [10] deals with Fc-GDF15 Mutant 3 (R4N/G6T) (human). Described as above.
Test [11] addresses Fc-GDF15 Mutant 3C (R4N/G6T, V98I) (human). Described as above.
Test [12] has as its target T2, Fc-GDF15 WT (wildtype Fc-GDF15 control; knob-Fc-(G4S)5-GDF15 paired with hole-Fc) (human) (UniProt Q99988).
T2 sequence (Q99988 whole entry, looked up): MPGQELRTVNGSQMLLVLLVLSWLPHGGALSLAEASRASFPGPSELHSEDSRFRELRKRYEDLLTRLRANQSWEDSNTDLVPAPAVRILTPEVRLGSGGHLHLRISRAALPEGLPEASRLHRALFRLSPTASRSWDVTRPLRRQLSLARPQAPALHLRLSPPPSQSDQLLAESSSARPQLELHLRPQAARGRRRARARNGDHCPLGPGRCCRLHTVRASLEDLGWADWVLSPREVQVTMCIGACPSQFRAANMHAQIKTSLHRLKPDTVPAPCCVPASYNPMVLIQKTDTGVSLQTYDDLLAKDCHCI
The description is as above.

For test [13], the target named is Fc-GDF15 Mutant 3A (R4N/G6T, L36H) (human). The test is described as above.
The target in test [14] is Fc-GDF15 Mutant 2A (A3N/N5T, L36H) (human). The test is described as above.
For test [15], the target named is Fc-GDF15 Mutant 3B (R4N/G6T, L36R) (human). The test is described as above.
For test [16], the target named is Fc-GDF15 Mutant 2C (A3N/N5T/V98I) (human). Described as above.

B1: mouse GFRAL extracellular domain (ECD), residues 19-350 (domain or fragment)
chain: SQTNDCAHLIQKCLIDANGCEQSWRSMEDTCLTPGDSCKINNSLHCNLSIQALVEKNFQFKECLCMDDLHCTVNKLFGKKCTNKTDNMEKDNKDKWNLTTTPFYHGFKQMQSCLEVTEACVGDVVCNAQLALYLKACSANGNLCDVKHCQAAIRFFYQNMPFNTAQMLAFCDCAQSDIPCQQSKETLHSKPCALNIVPPPTCLSVIHTCRNDELCRTHYRTFQTECWPHITGKCHEDETCISMLGKQDLTCSGSESCRAAFLGTFGTVLQVPCACRGVTQAEEHVCMIFQHMLHSKSCFNYPTPNVKDISSYEKKNSKEITLTGFNSFFNGE
For orientation: koff means the rate constant with which the complex falls apart. The kon is the rate constant with which the complex forms. Read a high kon as fast association. Consider B1, for which the koff is 0.372 s⁻¹ in test [1]; 0.474 s⁻¹ in test [2]; 0.16 s⁻¹ in test [3]; 0.364 s⁻¹ in test [4]; 0.2 s⁻¹ in [5]; 0.105 s⁻¹ in [6]. Further, the koff in [7] amounted to 0.188 s⁻¹; in [8] it was 0.179 s⁻¹. In addition, the kon in test [1] came to 1.52e+06 M⁻¹ s⁻¹; in [2], 1.59e+06 M⁻¹ s⁻¹; in test [3] it was 865000 M⁻¹ s⁻¹; in test [4], 1.61e+06 M⁻¹ s⁻¹; in test [5], 1.13e+06 M⁻¹ s⁻¹; in [6] it was 1.26e+06 M⁻¹ s⁻¹. Further, the kon in test [7] is 1.69e+06 M⁻¹ s⁻¹; in test [8] it was 1.88e+06 M⁻¹ s⁻¹.

B2: Soluble mouse GFRAL extracellular domain (ECD) (receptor)
chain: SQTNDCAHLIQKCLIDANGCEQSWRSMEDTCLTPGDSCKINNSLHCNLSIQALVEKNFQFKECLCMDDLHCTVNKLFGKKCTNKTDNMEKDNKDKWNLTTTPFYHGFKQMQSCLEVTEACVGDVVCNAQLALYLKACSANGNLCDVKHCQAAIRFFYQNMPFNTAQMLAFCDCAQSDIPCQQSKETLHSKPCALNIVPPPTCLSVIHTCRNDELCRTHYRTFQTECWPHITGKCHEDETCISMLGKQDLTCSGSESCRAAFLGTFGTVLQVPCACRGVTQAEEHVCMIFQHMLHSKSCFNYPTPNVKDISSYEKKNSKEITLTGFNSFFNGE
A word on the Kd: it is the concentration at which binding is half-saturated. Low readings indicate a tighter complex, high ones a looser complex. Turning to B2, the Kd in [9] was found to be 245 nM; in test [10], 300 nM; in test [11], 124 nM; in [12], 230 nM; in [13], 178 nM; in test [14], 186 nM. Moreover, the values for the dissociation constant Kd in test [15] and in test [16] were 82.8 nM and 95.8 nM, respectively.

B3: human GFRAL extracellular domain (ECD), residues 19-351 (domain or fragment)
chain: SQTNNCTYLREQCLRDANGCKHAWRVMEDACNDSDPGDPCKMRNSSYCNLSIQYLVESNFQFKECLCTDDFYCTVNKLLGKKCINKSDNVKEDKFKWNLTTRSHHGFKGMWSCLEVAEACVGDVVCNAQLASYLKACSANGNPCDLKQCQAAIRFFYQNIPFNIAQMLAFCDCAQSDIPCQQSKEALHSKTCAVNMVPPPTCLSVIRSCQNDELCRRHYRTFQSKCWQRVTRKCHEDENCISTLSKQDLTCSGSDDCKAAYIDILGTVLQVQCTCRTITQSEESLCKIFQHMLHRKSCFNYPTLSNVKGMALYTRKHANKITLTGFHSPFNGE
Regarding B3, the koff turned out to be 0.1 s⁻¹ in test [1]; 0.113 s⁻¹ in test [2]; 0.039 s⁻¹ in test [3]; 0.12 s⁻¹ in [4]; 0.0402 s⁻¹ in test [5]; 0.0283 s⁻¹ in test [6]. Also, the results for the koff in test [7] and in test [8] were 0.0571 s⁻¹ and 0.0574 s⁻¹, respectively. Besides, the kon in test [1] was 1e+07 M⁻¹ s⁻¹; in test [2], 1e+07 M⁻¹ s⁻¹; in test [3], 6.47e+06 M⁻¹ s⁻¹; in [4], 1.07e+07 M⁻¹ s⁻¹; in test [5] it was 6.61e+06 M⁻¹ s⁻¹; in test [6] it was 7.72e+06 M⁻¹ s⁻¹. The kon came out at 1.05e+07 M⁻¹ s⁻¹ in [7] and 1.03e+07 M⁻¹ s⁻¹ in test [8].

B4: Soluble human GFRAL extracellular domain (ECD) (receptor)
chain: SQTNNCTYLREQCLRDANGCKHAWRVMEDACNDSDPGDPCKMRNSSYCNLSIQYLVESNFQFKECLCTDDFYCTVNKLLGKKCINKSDNVKEDKFKWNLTTRSHHGFKGMWSCLEVAEACVGDVVCNAQLASYLKACSANGNPCDLKQCQAAIRFFYQNIPFNIAQMLAFCDCAQSDIPCQQSKEALHSKTCAVNMVPPPTCLSVIRSCQNDELCRRHYRTFQSKCWQRVTRKCHEDENCISTLSKQDLTCSGSDDCKAAYIDILGTVLQVQCTCRTITQSEESLCKIFQHMLHRKSCFNYPTLSNVKGMALYTRKHANKITLTGFHSPFNGE
Turning to B4, the Kd was determined as 10 nM in test [9]; 11.2 nM in test [10]; 5.44 nM in [11]; 11 nM in [12]; 6.09 nM in [13]; 6.03 nM in [14]. The Kd came to 3.68 nM in test [15] and 5.52 nM in test [16].

The values above are taken from publication PMC8076310.
